Source: paper PMC6405929, “Targeted drug delivery via caveolae-associated protein PV1 improves lung fibrosis” (Communications Biology, 2019)

Biological target: T1, Plasmalemma vesicle-associated protein (PV1), recombinant mouse (Mus musculus, UniProt Q91VC4)
T1 construct: plasmalemma vesicle-associated protein (PV1), mouse, recombinant; also called mouse PV1; recombinant mouse PV1
Assay: SPR; ProteOn XPR36; mouse PV1 amine-coupled to a GLC chip at ~200 RU; antibodies injected at 100 μl/min; 25 °C, PBS pH 7.2; 1:1 Langmuir model
Conditions: both partners purified

T1 sequence (Q91VC4 whole entry): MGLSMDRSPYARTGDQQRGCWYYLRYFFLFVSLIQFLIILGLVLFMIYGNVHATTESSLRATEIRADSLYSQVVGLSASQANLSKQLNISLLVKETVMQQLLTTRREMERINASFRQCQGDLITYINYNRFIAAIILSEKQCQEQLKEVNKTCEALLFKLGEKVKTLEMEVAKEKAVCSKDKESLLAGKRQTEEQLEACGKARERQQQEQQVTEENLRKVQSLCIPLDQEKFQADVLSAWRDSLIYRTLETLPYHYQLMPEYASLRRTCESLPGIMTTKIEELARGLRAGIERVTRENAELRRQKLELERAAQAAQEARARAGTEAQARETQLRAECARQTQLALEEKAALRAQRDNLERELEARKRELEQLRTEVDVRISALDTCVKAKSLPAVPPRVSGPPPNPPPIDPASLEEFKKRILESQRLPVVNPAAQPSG

B1: αPV1 IgG (de novo sequenced Meca32 variant as a human IgG1 chimeric antibody) (antibody, V domains shown)
VH: EVQLVESGGGLVQPGRSMKLSCAASGFTFSDYYMAWVRQAPKKGLEWVASISYEGNKTYYGDSVKGRFTISRDNAKSILYLQMNSLKSEDTATYYCARQSYSSYLFDYWGQGVM
VL: DIQMTQTPSSMSASLGERVTLSCGTSQGVNLFLNWYQQKPDGTIKPLIFFTSHLQSGVPSRFSGSGSGTAYSLTISSLEPEDFAVYYCQQYDSSPPTFGGGTKLYLK
notes: human IgG1 heavy-chain constant region (chimeric antibody); VL of the chosen Meca32 variant; light-chain constant region; Human IgG1 chimera of rat variable domains; also called anti-PV1 antibody; αPV1 mAb; source: HEK293F, transient, purified (protein A; SEC if necessary)
  Kd: 0.5 nM
